This is an account of results in patent publication US20250296960A1, “PEPTIDE COMPOSITIONS AND METHODS OF USE THEREOF” (priority 2022, published 2025).

Like-named read-outs stand apart in the source and are kept apart here. Numbered stars: 1 amine (or outer) side, 2 acyl side, 3 side chain; on linkers, the order of the positions; unused ones are H or OH. Square brackets hold non-standard residues; d marks the D form. Primed or numbered codes have the meaning given here. Side chains are listed from the residue outwards. Ends that are not written are not given here. Peptide text beside a SMILES is read from it. * marks the point of attachment. C18 = C18 fatty acid (C16-C22 fatty acids conjugated via γGlu/8-amino-3,6-dioxaoctanoic acid spacers); C18″ = C18 fatty acid moiety (of 2OEG-γGlu-C18, K*); C20 = C20 fatty acid moiety (of 2OEG-γGlu-C20, K**); C20 diacid = O=C(O)CCCCCCCCCCCCCCCCCCC(=O)*; γGlu = O=C(O)[C@H](CCC(=O)[*:2])N[*:1]; αMeR = C[C@](N)(CCCNC(=N)N)C(=O)O; AEEA = NCCOCCOCC(=O)O; Aib = CC(C)(N)C(=O)O

Data set [1] can be described thus: In vivo efficacy in CDA-HFD (NASH) mice, 4 weeks. The note with it: Example 16; for body weight compared to vehicle-treated control, in words: 20 nmol/kg s.c. Q2D, 4 weeks; for liver enzymes and liver steatosis compared to vehicle-treated control, in words: end of treatment. On the procedure:
This study was conducted to evaluate the efficacy of SEQ ID NOs. […] SEQ ID NOs. The peptides were delivered at 0.02% PS80 in PBS and dosing volume was 10 mL/kg. Control group was administered by vehicle without peptide.
Body weight changes were monitored Q2D; serum chemistry (end); hepatic TG (end); and histological analysis (end). […]

For data set [2] the following is noted: rat, in vivo, iv, 100 nmol/kg. On the procedure: This study was conducted to evaluate the PK profile of SEQ ID NOs. 77, 102, and 103 and compare the PK profile by the different lipidated structure of peptides in rat plasma by IV administration. SEQ ID NOs. The peptides were delivered at 0.02% PS80 in PBS and dosing volume was 2.5 mL/kg.
The animals were not fasted prior to dosing. 0.2-0.4 mL of whole blood was taken from vein at each time point (0.167, 0.5, 1, 2, 4, 6, 8, 24, and 48 hr after administration) and transferred into the heparin coated tube.
The resulting plasma of 0.1-0.2 mL obtained by centrifugation of the blood samples was transferred into the tube and stored at −70° C. until analysis. The concentrations of peptides in plasma were determined by LC-MS/MS analysis.

Data set [3] can be described thus: In vivo efficacy in mAMLN (obese and NASH) mice, 4 weeks. The following applies: after 4 weeks.
Data set [4] has as its target T1, human glucagon receptor (GCGR), expressed on CHO-K1 cells (human, UniProt P47871 26-477). As to the kind of experiment: cell-based or functional assay.
For data set [5], the target named is T2, human GLP-1 receptor (GLP-1R), expressed on CHO-K1 cells (human, UniProt P43220 24-463). As to the kind of experiment: cell-based or functional assay.
The target in data set [6] is T3, human glucose-dependent insulinotropic polypeptide receptor (GIPR), expressed on CHO-K1 cells (human, UniProt P48546 22-466).
T3 sequence (looked up): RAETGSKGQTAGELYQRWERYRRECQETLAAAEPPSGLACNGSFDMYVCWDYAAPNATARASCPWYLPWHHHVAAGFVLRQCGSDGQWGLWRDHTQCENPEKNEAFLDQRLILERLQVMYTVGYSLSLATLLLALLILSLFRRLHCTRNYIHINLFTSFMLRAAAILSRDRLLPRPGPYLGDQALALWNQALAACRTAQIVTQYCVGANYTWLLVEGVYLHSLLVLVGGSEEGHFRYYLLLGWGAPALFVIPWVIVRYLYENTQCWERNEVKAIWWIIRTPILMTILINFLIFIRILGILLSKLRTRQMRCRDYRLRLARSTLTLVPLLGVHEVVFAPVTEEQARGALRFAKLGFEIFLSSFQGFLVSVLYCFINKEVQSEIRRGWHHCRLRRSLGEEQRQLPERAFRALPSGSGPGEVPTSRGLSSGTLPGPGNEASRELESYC
Description: cell-based or functional assay.

Data set [7] addresses T1, human glucagon receptor (GCGR), …. Description: cell-based or functional assay. This is another data set of the same source.
In data set [8] the target is T2, human GLP-1 receptor (GLP-1R), …. Description: cell-based or functional assay. This is another data set of the same source.
For data set [9], the target named is T3, human glucose-dependent insulinotropic …. Description: cell-based or functional assay. This is another data set of the same source.
The target of data set [10] is T1, human glucagon receptor (GCGR), …. Description: cell-based or functional assay. The source holds these as a separate data set.
The target of data set [11] is T2, human GLP-1 receptor (GLP-1R), …. Description: cell-based or functional assay. This is another data set of the same source.
Data set [12] deals with T3, human glucose-dependent insulinotropic …. As to the kind of experiment: cell-based or functional assay. The source holds these as a separate data set.
In data set [13] the target is T1, human glucagon receptor (GCGR), …. As to the kind of experiment: cell-based or functional assay. This is another data set of the same source.
Data set [14] deals with T2, human GLP-1 receptor (GLP-1R), …. Description: cell-based or functional assay. This is another data set of the same source.
The target in data set [15] is T3, human glucose-dependent insulinotropic …. Description: cell-based or functional assay. The source holds these as a separate data set.
Data set [16] addresses T1, human glucagon receptor (GCGR), …. Description: cell-based or functional assay. The source holds these as a separate data set.
Data set [17] has as its target T2, human GLP-1 receptor (GLP-1R), …. As to the kind of experiment: cell-based or functional assay. This is another data set of the same source.
Data set [18] addresses T3, human glucose-dependent insulinotropic …. Description: cell-based or functional assay. The source holds these as a separate data set.

T1 sequence (P47871 26-477): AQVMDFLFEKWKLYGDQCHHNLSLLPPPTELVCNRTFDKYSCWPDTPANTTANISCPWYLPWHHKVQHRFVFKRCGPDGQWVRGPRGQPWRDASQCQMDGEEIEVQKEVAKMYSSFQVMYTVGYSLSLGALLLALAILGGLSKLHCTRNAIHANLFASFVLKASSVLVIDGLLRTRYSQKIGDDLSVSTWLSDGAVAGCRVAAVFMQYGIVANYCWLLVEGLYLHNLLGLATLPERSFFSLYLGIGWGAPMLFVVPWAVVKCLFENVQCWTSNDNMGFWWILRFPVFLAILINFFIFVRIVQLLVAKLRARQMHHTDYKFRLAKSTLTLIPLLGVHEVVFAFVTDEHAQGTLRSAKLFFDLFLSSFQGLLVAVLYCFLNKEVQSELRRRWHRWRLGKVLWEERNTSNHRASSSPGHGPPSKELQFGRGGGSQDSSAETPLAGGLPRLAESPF

The half-life is how long it takes for the measured level to halve. Turning to `CSCC[C@H](NC(=O)[C@H](Cc1ccc(O)cc1)NC(=O)[C@H](CC(=O)O)NC(=O)[C@H](CC(C)C)NC(=O)[C@H](CC(C)C)NC(=O)[C@H](CCCCNC(=O)COCCOCCNC(=O)COCCOCCNC(=O)CC[C@H](NC(=O)CCCCCCCCCCCCCCCCCCC(=O)O)C(=O)O)NC(=O)[C@H](CO)NC(=O)[C@H](Cc1ccc(O)cc1)NC(=O)[C@H](CC(=O)O)NC(=O)[C@H](CO)NC(=O)[C@@H](NC(=O)[C@H](Cc1ccccc1)NC(=O)[C@@H](NC(=O)CNC(=O)[C@H](CCC(N)=O)NC(=O)C(C)(C)NC(=O)[C@@H](N)Cc1ccc(O)cc1)[C@@H](C)O)[C@@H](C)O)C(=O)N[C@@H](CCSC)C(=O)N[C@@H](CCC(N)=O)C(=O)N[C@@H](CCCNC(=N)N)C(=O)N[C@@H](CC(=O)O)C(=O)N[C@@H](Cc1ccccc1)C(=O)N[C@H](C(=O)N[C@@H](CCC(N)=O)C(=O)N[C@@H](Cc1c[nH]c2ccccc12)C(=O)N[C@@H](CC(C)C)C(=O)N[C@@H](CC(C)C)C(=O)N[C@@H](CCC(=O)O)C(=O)NCC(=O)NCC(=O)N1CCC[C@H]1C(=O)N[C@@H](CO)C(=O)N[C@@H](CO)C(=O)NCC(=O)N[C@@H](C)C(=O)N1CCC[C@H]1C(=O)N1CCC[C@H]1C(=O)N1CCC[C@H]1C(=O)N[C@@H](CO)C(N)=O)C(C)C` [compound 103] (H-Y[Aib]QGTFTSDYSK([AEEA-AEEA-γGlu-C20 diacid])LLDYMMQRDFVQWLLEGGPSSGAPPPS-NH2; N-terminus and C-terminus assumed), in [1], the “efficacy in the NASH model, in words” value is listed as “superior efficacy compared to SEQ ID NO. 77”; the “hepatic steatosis score compared to CDA-HFD control, in words” value is given as “significantly reduced”; the “scores of hepatocytes inflammation and NAS score, in words” value was “statistically reduced”; the “body weight compared to vehicle-treated control, in words” value is recorded as “reduce body weight”. The “liver enzymes and liver steatosis compared to vehicle-treated control, in words” value in data set [1] is “reduce liver enzymes and liver steatosis significantly”. In addition, in [2], the “AUCinf/dose” value came to 629.51 ± 76.87 kg·h/L and the half-life is 9.59 ± 1.32 h.

In the case of `CSCC[C@H](NC(=O)[C@H](Cc1ccc(O)cc1)NC(=O)[C@H](CC(=O)O)NC(=O)[C@H](CC(C)C)NC(=O)[C@H](CC(C)C)NC(=O)[C@H](CCCCNC(=O)COCCOCCNC(=O)CC[C@H](NC(=O)CCCCCCCCCCCCCCCCCCC(=O)O)C(=O)O)NC(=O)[C@H](CO)NC(=O)[C@H](Cc1ccc(O)cc1)NC(=O)[C@H](CC(=O)O)NC(=O)[C@H](CO)NC(=O)[C@@H](NC(=O)[C@H](Cc1ccccc1)NC(=O)[C@@H](NC(=O)CNC(=O)[C@H](CCC(N)=O)NC(=O)C(C)(C)NC(=O)[C@@H](N)Cc1ccc(O)cc1)[C@@H](C)O)[C@@H](C)O)C(=O)N[C@@H](CCSC)C(=O)N[C@@H](CCC(N)=O)C(=O)N[C@@H](CCCNC(=N)N)C(=O)N[C@@H](CC(=O)O)C(=O)N[C@@H](Cc1ccccc1)C(=O)N[C@H](C(=O)N[C@@H](CCC(N)=O)C(=O)N[C@@H](Cc1c[nH]c2ccccc12)C(=O)N[C@@H](CC(C)C)C(=O)N[C@@H](CC(C)C)C(=O)N[C@@H](CCC(=O)O)C(=O)NCC(=O)NCC(=O)N1CCC[C@H]1C(=O)N[C@@H](CO)C(=O)N[C@@H](CO)C(=O)NCC(=O)N[C@@H](C)C(=O)N1CCC[C@H]1C(=O)N1CCC[C@H]1C(=O)N1CCC[C@H]1C(=O)N[C@@H](CO)C(N)=O)C(C)C` [compound 102] (H-Y[Aib]QGTFTSDYSK([AEEA-γGlu-C20 diacid])LLDYMMQRDFVQWLLEGGPSSGAPPPS-NH2; N-terminus and C-terminus assumed), in data set [1], the “scores of hepatocytes inflammation and NAS score, in words” value is on record as “statistically reduced”; the “body weight compared to vehicle-treated control, in words” value was “reduce body weight”; the “liver enzymes and liver steatosis compared to vehicle-treated control, in words” value is “reduce liver enzymes and liver steatosis significantly”. Moreover, in [2], the “AUCinf/dose” value is 672.93 ± 32.13 kg·h/L and the half-life is 9.77 ± 0.89 h.

Regarding “97 (Y[Aib]QGTFTSDYSK([AEEA-AEEA-γGlu-C18])YLDYMMQRDFVK(N‑Biotinoyl‑N'‑(6-maleimidohexanoyl)hydrazide)WLLEGGPSSGAPPPS-NH2) [compound 97]”, in [3], the “NAS score, in words” value is “statistically decreased more than the level of tirzepatide”; the “hepatic steatosis (histological score), in words” value was “significantly reduced”; the “liver weight, visceral fat weight, liver enzymes, and liver steatosis compared to vehicle-treated control, in words” value is recorded as “significantly reduced”.

With Y[Aib]QGTFTSDYSK([AEEA-AEEA-γGlu-C18″])LLDYMMQ[αMeR]DFVQWLLEGGPSSGAPPPS-NH2 [SEQ ID NO. 101], the “Ratio vs. GLP-1R” value in data set [4] amounted to 12; in [5], 100; in data set [6], 65. The “Relative % to native ligand” value in [4] turned out to be 89%; in [5], 722%; in data set [6], 472%.

On to Y[Aib]QGTFTSDYSK([AEEA-AEEA-γGlu-C20])YLDYMMQ[αMeR]DFVQWLLEGGPSSGAPPPS-NH2 [SEQ ID NO. 107], for which the “Ratio vs. GLP-1R” value came out at 37 in [7], 100 in data set [8] and 537 in data set [9]. Further, the “Relative % to native ligand” value in [7] turned out to be 14%; in data set [8], 37%; in [9], 200%.

Y[Aib]QGTFTSDYSK([AEEA-AEEA-γGlu-C18″])LLDYMMQRDFVQWLLEGGPSSGAPPPS-NH2 [Peptide No. 5-3D]: the “Ratio vs. GLP-1R” value stood at 26 in [4]; 100 in data set [5]; 105 in data set [6]; 9 in [16]; 100 in [17]; 880 in data set [18]. In addition, the “Relative % to native ligand” value in [4] was found to be 56%; in data set [5], 219%; in data set [6] it was 230%; in [10], 11%; in data set [11] it was 119%; in data set [12], 1050%. Further, the results for the “Relative % to non-lipidated peptide” value in data set [13], in [14] and in data set [15] were 1%, 19% and 15%, respectively.

As for Y[Aib]QGTFTSDYSK([AEEA-AEEA-γGlu-C20])LLDYMMQ[αMeR]DFVQWLLEGGPSSGAPPPS-NH2 [SEQ ID NO. 108], the “Ratio vs. GLP-1R” value in [7] was determined as 83; in data set [8], 100; in data set [9] it was 971. Besides, the “Relative % to native ligand” value came to 39% in data set [7], 46% in data set [8] and 451% in data set [9].
